“And” between values parts separate entries of the source, which are not always exact repeats. Equal entries are not always repeated.
Tests used:
[1] = biological target: CREB-binding protein (CBP) (human (endogenous in HEp-2)) (UniProt Q92793); assay: co-IP
[2] = biological target: p300 (human (endogenous in HEp-2)) (UniProt Q09472); assay: co-IP
Sequence of UniProt Q09472 (Q09472 whole entry): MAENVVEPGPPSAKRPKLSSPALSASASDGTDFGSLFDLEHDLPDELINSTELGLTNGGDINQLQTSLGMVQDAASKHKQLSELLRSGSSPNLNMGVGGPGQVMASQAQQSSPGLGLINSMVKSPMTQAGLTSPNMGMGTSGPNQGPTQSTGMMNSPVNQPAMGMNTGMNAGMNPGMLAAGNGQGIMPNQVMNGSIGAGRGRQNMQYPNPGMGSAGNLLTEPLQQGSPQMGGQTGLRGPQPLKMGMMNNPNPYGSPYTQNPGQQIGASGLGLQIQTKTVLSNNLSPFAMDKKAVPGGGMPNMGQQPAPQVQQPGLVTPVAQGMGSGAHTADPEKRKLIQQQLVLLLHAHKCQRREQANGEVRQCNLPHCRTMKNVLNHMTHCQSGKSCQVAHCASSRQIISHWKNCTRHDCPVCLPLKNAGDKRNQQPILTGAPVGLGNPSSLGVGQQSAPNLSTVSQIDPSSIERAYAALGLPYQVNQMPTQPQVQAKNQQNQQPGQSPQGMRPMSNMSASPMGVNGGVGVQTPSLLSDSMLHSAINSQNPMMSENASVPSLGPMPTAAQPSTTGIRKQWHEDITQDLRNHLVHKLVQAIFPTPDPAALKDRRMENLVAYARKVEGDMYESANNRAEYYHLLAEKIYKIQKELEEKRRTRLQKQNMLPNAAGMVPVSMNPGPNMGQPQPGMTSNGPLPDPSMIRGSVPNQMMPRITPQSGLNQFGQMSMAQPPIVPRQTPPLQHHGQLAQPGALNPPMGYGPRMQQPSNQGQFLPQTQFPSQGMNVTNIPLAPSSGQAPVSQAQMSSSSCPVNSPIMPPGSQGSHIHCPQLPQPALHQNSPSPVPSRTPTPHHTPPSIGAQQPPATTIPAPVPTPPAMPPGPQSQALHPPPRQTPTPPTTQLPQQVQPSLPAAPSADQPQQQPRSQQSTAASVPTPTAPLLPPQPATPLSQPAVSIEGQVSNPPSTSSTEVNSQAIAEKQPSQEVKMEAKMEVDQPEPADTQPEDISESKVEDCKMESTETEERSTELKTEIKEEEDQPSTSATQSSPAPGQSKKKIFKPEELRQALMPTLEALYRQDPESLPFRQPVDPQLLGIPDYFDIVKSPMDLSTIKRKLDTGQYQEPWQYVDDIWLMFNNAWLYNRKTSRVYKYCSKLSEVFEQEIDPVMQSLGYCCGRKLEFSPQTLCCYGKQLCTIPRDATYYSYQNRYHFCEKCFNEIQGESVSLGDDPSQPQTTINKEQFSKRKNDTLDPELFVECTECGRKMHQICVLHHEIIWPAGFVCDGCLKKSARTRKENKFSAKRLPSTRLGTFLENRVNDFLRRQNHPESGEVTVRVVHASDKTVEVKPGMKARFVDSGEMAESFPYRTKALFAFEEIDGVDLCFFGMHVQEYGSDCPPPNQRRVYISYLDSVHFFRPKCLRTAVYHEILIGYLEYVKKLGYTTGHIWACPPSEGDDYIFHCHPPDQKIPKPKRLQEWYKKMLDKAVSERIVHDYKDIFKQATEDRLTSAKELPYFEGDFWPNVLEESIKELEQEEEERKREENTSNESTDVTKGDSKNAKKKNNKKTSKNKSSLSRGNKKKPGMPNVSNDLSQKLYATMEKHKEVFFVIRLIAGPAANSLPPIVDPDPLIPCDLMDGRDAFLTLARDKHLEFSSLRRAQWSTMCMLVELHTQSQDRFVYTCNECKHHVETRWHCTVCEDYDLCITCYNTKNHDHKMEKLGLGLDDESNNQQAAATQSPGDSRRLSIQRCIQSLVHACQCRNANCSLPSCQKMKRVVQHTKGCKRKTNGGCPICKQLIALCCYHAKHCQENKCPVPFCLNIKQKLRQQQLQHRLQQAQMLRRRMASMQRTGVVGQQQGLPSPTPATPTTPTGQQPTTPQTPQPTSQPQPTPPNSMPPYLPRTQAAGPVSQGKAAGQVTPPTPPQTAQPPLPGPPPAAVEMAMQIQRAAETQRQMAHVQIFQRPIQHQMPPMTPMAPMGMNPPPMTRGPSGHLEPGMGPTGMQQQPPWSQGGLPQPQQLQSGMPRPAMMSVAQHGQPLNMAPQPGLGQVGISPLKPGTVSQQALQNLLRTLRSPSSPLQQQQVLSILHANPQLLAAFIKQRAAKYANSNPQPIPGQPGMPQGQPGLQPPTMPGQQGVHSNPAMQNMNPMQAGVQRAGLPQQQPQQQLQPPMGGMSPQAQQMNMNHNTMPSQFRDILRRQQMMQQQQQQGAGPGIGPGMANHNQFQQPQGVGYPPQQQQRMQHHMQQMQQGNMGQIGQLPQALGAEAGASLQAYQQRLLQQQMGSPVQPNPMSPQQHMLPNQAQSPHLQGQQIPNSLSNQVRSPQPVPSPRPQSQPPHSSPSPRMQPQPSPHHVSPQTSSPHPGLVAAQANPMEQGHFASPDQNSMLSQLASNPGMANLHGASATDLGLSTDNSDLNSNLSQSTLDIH

Sequence of UniProt Q92793 (Q92793 whole entry): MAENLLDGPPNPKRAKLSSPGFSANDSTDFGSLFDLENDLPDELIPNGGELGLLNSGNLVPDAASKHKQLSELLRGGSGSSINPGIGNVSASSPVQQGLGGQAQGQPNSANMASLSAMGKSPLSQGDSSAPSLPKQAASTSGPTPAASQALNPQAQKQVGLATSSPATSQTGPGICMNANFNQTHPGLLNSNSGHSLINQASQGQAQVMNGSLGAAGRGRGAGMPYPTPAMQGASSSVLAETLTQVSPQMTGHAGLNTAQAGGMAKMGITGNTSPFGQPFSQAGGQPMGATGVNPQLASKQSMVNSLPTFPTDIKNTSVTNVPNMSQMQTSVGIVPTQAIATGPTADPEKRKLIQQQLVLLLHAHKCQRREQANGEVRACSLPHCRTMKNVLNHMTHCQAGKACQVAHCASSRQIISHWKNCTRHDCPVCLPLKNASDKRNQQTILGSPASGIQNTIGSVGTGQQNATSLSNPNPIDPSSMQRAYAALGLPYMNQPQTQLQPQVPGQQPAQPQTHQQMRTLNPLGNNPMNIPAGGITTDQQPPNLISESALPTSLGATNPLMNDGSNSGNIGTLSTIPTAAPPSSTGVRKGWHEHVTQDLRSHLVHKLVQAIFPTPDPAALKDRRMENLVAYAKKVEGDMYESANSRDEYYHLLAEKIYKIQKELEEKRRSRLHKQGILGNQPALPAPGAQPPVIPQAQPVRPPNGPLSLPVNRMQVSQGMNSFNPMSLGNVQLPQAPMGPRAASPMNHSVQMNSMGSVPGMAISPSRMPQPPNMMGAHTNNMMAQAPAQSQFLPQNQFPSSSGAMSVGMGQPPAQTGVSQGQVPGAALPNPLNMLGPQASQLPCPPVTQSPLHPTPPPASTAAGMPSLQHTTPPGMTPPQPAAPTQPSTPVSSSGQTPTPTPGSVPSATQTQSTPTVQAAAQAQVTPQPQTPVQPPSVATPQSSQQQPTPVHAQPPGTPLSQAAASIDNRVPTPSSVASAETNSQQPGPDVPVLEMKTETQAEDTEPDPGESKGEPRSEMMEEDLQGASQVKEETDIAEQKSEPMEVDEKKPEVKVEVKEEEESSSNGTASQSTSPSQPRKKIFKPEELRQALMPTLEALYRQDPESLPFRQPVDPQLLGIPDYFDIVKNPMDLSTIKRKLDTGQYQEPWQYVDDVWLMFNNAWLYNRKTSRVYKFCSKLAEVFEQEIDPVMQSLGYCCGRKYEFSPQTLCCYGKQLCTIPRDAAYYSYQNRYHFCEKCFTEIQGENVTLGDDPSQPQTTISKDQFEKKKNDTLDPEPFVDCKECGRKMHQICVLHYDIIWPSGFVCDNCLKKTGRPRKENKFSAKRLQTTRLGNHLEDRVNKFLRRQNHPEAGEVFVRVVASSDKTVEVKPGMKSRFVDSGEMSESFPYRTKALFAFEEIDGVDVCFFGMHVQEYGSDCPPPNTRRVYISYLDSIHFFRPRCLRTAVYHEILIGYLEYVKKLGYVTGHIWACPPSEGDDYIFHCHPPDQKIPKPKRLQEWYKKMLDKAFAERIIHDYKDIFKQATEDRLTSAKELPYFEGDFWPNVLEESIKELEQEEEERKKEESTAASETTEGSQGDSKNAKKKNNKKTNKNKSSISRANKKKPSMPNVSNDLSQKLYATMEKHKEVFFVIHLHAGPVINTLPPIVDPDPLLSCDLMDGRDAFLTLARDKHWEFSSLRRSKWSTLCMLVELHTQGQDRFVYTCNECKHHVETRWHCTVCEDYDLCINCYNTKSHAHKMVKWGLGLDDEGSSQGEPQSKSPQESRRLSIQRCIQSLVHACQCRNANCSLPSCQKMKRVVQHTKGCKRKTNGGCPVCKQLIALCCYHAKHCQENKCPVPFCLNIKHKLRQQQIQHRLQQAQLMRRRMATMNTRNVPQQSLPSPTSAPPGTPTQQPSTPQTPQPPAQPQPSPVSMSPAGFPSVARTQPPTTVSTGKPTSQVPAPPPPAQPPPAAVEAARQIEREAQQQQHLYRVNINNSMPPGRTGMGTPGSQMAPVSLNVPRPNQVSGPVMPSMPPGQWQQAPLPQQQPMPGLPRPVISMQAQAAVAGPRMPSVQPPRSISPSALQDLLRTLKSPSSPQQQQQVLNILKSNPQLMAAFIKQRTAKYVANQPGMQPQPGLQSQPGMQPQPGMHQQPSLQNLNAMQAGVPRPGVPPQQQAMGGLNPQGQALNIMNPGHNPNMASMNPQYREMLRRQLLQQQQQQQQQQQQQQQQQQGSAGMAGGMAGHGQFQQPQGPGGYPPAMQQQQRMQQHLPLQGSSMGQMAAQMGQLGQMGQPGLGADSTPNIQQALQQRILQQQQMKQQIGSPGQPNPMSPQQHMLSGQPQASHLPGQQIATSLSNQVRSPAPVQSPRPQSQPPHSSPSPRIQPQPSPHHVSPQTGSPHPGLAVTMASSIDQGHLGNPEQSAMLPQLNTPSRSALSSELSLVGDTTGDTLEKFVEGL

- percent of pol IIa recovered in the immunoprecipitate [1]: 10% and 20%
- percent of pol IIa recovered in the immunoprecipitate [2]: 10% and 20%
Substance: hypophosphorylated RNA polymerase II (pol IIa), largest subunit (from UniProt P24928 1-1970) (natural protein)
